We go through 1 sequence from patent publication US6984380B1, “Treatment of diseases involving faulty MHC class I antigen complex presentation” (priority 1991, dated 2006).

Where no end group is shown, it is not given here.

The target of assay [1] is T1, H-2K^d class I molecule on NOD splenocytes (Mus musculus, UniProt P01902).
T1 construct: Female NOD splenocytes were cultured with a K^d allele-specific peptide in an attempt to load the empty peptide groove of this class I molecule; endogenous in cells; host or cells: primary splenocytes (macrophage/monocyte and lymphocyte gates) from female NOD mice and control B10.D2 (R103) mice
T1 sequence (P01902 22-368): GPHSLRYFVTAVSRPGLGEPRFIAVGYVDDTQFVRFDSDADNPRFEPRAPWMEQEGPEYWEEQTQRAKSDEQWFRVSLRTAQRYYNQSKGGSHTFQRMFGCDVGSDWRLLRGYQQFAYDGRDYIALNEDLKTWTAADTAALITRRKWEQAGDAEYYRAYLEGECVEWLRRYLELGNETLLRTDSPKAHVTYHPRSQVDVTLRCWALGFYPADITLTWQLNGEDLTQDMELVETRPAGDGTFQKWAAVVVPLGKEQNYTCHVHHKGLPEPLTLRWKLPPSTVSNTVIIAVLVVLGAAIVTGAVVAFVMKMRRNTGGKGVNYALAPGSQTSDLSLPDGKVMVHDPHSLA
T1 sequence (P01887 21-119 partner): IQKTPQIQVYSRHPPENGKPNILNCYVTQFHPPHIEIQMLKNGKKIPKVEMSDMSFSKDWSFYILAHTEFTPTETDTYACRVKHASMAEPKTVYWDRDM
The assay is classed as cell-based.

Consider TYQRTRALV [K^d-specific peptide], for which, in the assay on H-2K^d target cells, the “susceptibility to CTL lysis after incubation with peptide” value is on record as “did restore susceptibility to CTLs” and the “susceptibility to CTL lysis after prior incubation with peptide” value is on record as “Neither the susceptibility of control BALB/c targets nor that of NOD male targets to CTL lysis was affected”. The “mean fluorescence attributable to K^d” value in assay [1] (control class I-identical B10.D2 (R103) splenocytes, peptide 480 μM, 5 hours at 37° C.) is given as “no change in mean fluorescence”. Besides, the “surface expression of K^d (mean fluorescence, FACS)” value in assay [1] (female NOD mouse macrophages, peptide 480 μM, 5-hour incubation at 37° C.) is “stabilized the surface expression of K^d”. In assay [1] (female NOD splenocytes), the “dose dependence of restoration and stabilization of K^d expression” value is given as “dose dependent”; the “optimal peptide concentration for restoration and stabilization of K^d expression” value was “greater than 240 μM”.
